To fix the notation:
B1: TIGIT-070-H1L1 (antibody, V domains shown)
VH: EVQLVQSGAEVKKPGASVKVSCKASGYTFTNYYMHWVRQAPGQRLEWMGRIDPDSGGSKYNEKFKSRVTITVDKSASTAYMELSSLRSEDTAVYYCAREGHYGFYSDYWGQGTTVTVSS
VL: DIQMTQSPSSLSASVGDRVTITCRVSENIYSYLAWYQQKPGKSPKLLIYNAKTLAEGVPSRFSGSGSGTDFTLTISSLQPEDFATYYCQHHYGNPLTFGPGTKVDIK
notes: Humanized anti-TIGIT antibody
B2: TIGIT-002-H4L3 (antibody, V domains shown)
VH: EVQLQESGPGLVKPSETLSLTCAVSGYSITSDSWNWIRQPPGKKLEYIGYISYSGNTYYNPSLKSRVTISRDTSKNQFSLKLSSVTAADTAVYYCARLDFSNYGGAVDYWGQGTTVTVSS
VL: DIVMTQSPDSLAVSLGERATINCKASQNVRTAVAWYQQKPGQSPKLMIYSASYRYTGVPDRFSGSGSGTDFTLTISSLQAEDVAVYYCQQYYTTPWTFGGGTKVEIK
notes: Humanized anti-TIGIT antibody
B3: TIGIT-006-H5L3 (antibody, V domains shown)
VH: EVQLQESGPGLVKPSETLSLTCAVSGYSMTSDYWNWIRQPPGKKLEYIGYISYSGRTYYNPSLKSRVTISRDTSKNQFSLKLSSVTAADTAVYYCARGDYSNYGGAMYDWGQGTTVTVSS
VL: DIVMTQSPDSLAVSLGERATINCRASQGVSTTIAWYQQKPGQSPKLLIYSASYRYTGVPRFSGSGSGTDFTLTISSLQAEDVAVYYCQQYYSSPFTFGGGTKVEIK
notes: Humanized anti-TIGIT antibody
B4: TIGIT-005-H2L1d (antibody, V domains shown)
VH: EVQLVQSGAEVKKPGASVKVSCKASGYAFTNYLIEWVRQAPGQRLEWMGVINPGSGGTNYKEKFKGRVTITADKSSSTAYMELSSLRSEDTAVYYCARGEYFFFDYWGQGTTVTVSS
VL: DIVMTQSPDSLAVSLGERATINCKASQHVSNAVAWYQHKPGQSPKLLIYSASYRYTGVPDRFSGSGSGTDFTLTISSLQAEDVAVYYCQQHYNTPHTFGGGTKVEIK
notes: Humanized anti-TIGIT antibody with NG-site mutation in VL
B5: PVRIG-A105 (VHH)
VHH: EVQLVESGGGLVQAGGSLRLSCAASGRTFDRHTMTWFRQAPGKEREFVATASRIPGDTYYSHSVKGRFTISRDNAKNTVYLQLNNLKPEDTAVYYCAATSAYCSEVDCYEKGSWYDNWGQGIQVTVSS
notes: tested as VHH-hinge-CH2-CH3 (human IgG1-Fc); not shown: human IgG1 hinge-CH2-CH3
B6: SRF813-hIgG1 (antibody, V domains shown)
VH: QVQLVQSGAEVKKPGSSVKVSCKASGGTFSSAAISWVRQAPGQGLEWMGNIIPIVGIANYAQKFQGRVTITADESTSTAYMELSSLRSEDTAVYYCARDTGRGYTRHFWFDPWGQGTLVTVSS
VL: DIQMTQSPSSLSASVGDRVTITCRASQSISSYLNWYQQKPGKAPKLLIYAASSLQSGVPSRFSGSGSGTDFTLTISSLQPEDFATYYCQQSDILYTFGGGTKVEIK
notes: human IgG1 format by its name
B7: PVRIG-A118 (Fc fusion)
chain: QVQLVESGGGLVQAGGSLRLSCAASETYFDLYVMGWYRQAPGKDRELVATITYTGSIKIVDSVKDRFTISRGDAKNTVSLQMSSLKPEDTAVYFCNADPSGLGRKVYWGQGTQVTVSS
notes: heavy chain antibody VHH-hinge-CH2-CH3, human IgG1 constant part; not shown: human IgG1 hinge-CH2-CH3
B8: PVRIG-A50 (Fc fusion)
chain: EVQLVESGGGLVQPGGSLRLSCAASGFTFSYYDMSWVRQAPGKGLEWVSTINSNGGRTSYVDSVKGRFTISRDNTKNTLYLQMNSLKPEDTAVYYCVEGDPHNFGLENLSLRDFGSWGQGTQVTVSS
notes: heavy chain antibody VHH-hinge-CH2-CH3, human IgG1 constant part; also called PVRIG-50; not shown: human IgG1 hinge-CH2-CH3
B9: PVRIG-A105 (Fc fusion)
chain: EVQLVESGGGLVQAGGSLRLSCAASGRTFDRHTMTWFRQAPGKEREFVATASRIPGDTYYSHSVKGRFTISRDNAKNTVYLQLNNLKPEDTAVYYCAATSAYCSEVDCYEKGSWYDNWGQGIQVTVSS
notes: as for B7

From patent publication US20240343803A1 (SHANDONG SIMCERE BIOPHARMACEUTICAL, published 2024) come the findings set out here.

One experiment concerns the target T1, Fusion protein of extracellular domain of human TIGIT and His-tag (human TIGIT ECD-his) (human).
T1 chain: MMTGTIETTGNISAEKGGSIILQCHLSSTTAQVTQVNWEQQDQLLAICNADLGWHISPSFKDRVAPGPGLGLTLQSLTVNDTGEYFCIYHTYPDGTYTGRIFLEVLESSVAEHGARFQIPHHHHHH
Put plainly: BIAcore. A general note: SPR reads the build-up and loss of mass on a sensor chip optically.
The Kd is a measure of binding affinity in units of concentration. What is called koff is a measure of how fast the partners let go of each other. As a reminder, the kon is a measure of how fast the partners come together. As for B1, the dissociation constant Kd was 251 pM, the koff stood at 0.000219 s⁻¹ and the on-rate (kon) came to 875000 M⁻¹ s⁻¹.
For B2, in that order: 99.4 pM, 0.000293 s⁻¹ and 2.95e+06 M⁻¹ s⁻¹.
For B3 the same measures were 115 pM, 0.000183 s⁻¹ and 1.6e+06 M⁻¹ s⁻¹.
For B4 the same measures were 85.2 pM, 0.000257 s⁻¹ and 3.02e+06 M⁻¹ s⁻¹.

The next experiment has as its target T2, cynomolgus monkey PVRIG on FlpinCHO-cyno PVRIG cells (cynomolgus monkey, UniProt A0A2K5WVV8 41-322).
T2 construct: whole, on cells; also called FlpinCHO-cynomolgus monkey PVRIG
T2 sequence: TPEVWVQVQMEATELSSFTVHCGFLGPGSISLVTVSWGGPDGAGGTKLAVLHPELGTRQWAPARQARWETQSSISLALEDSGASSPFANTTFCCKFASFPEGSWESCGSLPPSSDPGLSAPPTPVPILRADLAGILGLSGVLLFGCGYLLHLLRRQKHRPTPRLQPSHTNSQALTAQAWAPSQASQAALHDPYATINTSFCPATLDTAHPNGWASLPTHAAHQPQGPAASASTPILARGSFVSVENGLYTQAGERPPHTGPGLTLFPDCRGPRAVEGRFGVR
The experiment can be described thus: FACS, FlpinCHO-cyno PVRIG cells. On the procedure: After discarding the cell culture medium, the cells were rinsed with PBS and digested for 8-10 minutes by adding 1 mL Versene (Gibico, 15040-066). The Ham's F12 (Gibico, 21127-022) complete medium containing 10% FBS was then added to terminate the digestion and acquire cell suspension. After counting with a cell counter (Beckman Coulter, Vi-CELL), an appropriate amount of cell suspension was centrifuged at 350×g to remove the supernatant, washed twice with PBS, stained with Zombie violet (Biolegend, 423114) and incubated at room temperature for 20 minutes. After incubation, the cells were added with staining buffer (2% FBS+PBS) to stop staining, centrifuged at 350×g to remove the supernatant, washed twice and resuspended with staining buffer to a density of 2×10⁶ cells/mL. The cells were plated into a 96-well plate (50 μL of cell suspension per well) for further use. The antibodies were diluted from the highest concentration of 46 nM (two-fold concentration) with staining buffer by 3.3-fold serial dilution. The diluted antibodies were added to the well containing 50 μL of cell suspension. The plate was placed on a microplate shaker at 400 rpm for 1 minute to fully mix the antibodies and cells, and then incubated at 4° C. for 30 minutes. After the incubation, the cells were washed twice with staining buffer (200 μL per well) and centrifuged at 350×g for 5 minutes to discard the supernatant. The PE goat anti-human IgG Fc antibody (ebioscience, 12-4998-82) was diluted 250 times with staining buffer, added into the washed wells (100 μL per well), mixed well, and stained at 4° C. for 30 minutes. After staining, the cells were washed twice with staining buffer, finally resuspended with 200 μL staining buffer and analyzed by flow cytometry (BD, Canto II). […] An antibody binding curve was drawn with concentration of antibodies as the abscissa and the corresponding Mean Fluorescence Intensity (MFI) as the ordinate. The AUC value of the curve was calculated by using a Four Parameter Logistic Fit (GraphPadPrism9). […]
A general note: A flow cytometer gives signals particle by particle.
Broadly, the EC50 (read off the curve) is the midpoint of the concentration-response curve. B5: the “EC50 (read off the curve)” value is about 500 pM.
On the same count and under the same terms, for B6 the value was about 1000 pM.

Another experiment concerns the target T3, human PVRIG-his (AcroBiosystems, Cat NO. PVG-H52H4) (human, UniProt Q6DKI7 41-171, limits assumed).
T3 construct: also called human PVRIG protein
T3 sequence (looked up): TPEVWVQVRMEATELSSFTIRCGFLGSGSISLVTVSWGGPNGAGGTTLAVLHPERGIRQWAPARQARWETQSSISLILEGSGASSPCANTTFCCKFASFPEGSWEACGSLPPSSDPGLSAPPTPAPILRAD
The experiment can be described thus: competition ELISA, PVRIG-His coated, competitor human PVRL2-mFc. As to the method:
The ELISA plate was pre-coated with 100 μL/well of 0.5 μg/mL human PVRIG-his protein (AcroBiosystems, Cat NO. PVG-H52H4). The tested anti-PVRIG antibodies were diluted from the highest concentration of 16 nM (two-fold concentration). The diluted antibodies were mixed with 18 ng/ml human PVRL2-mFc (AcroBiosystems, Cat NO. CD2-H5257) in equal volume, added into the plate (100 μL/well), and incubated with shaking at room temperature for 2.0 hours. […] A HRP substrate, TMB (Thermo, Cat NO. 34029) was added into wells after washing the plate again for color development. After adding a termination solution to terminate the reaction, the absorbance value was read by a microplate reader (MD i3×). An inhibiting curve was drawn with concentration of antibodies as the abscissa and the corresponding OD value as the ordinate. The IC50 value was calculated by using a Four Parameter Logistic Fit (GraphPadPrism9). The smaller the IC50 value, the stronger the ability of the antibodies inhibits the binding between PVRIG and PVRL2. The positive and negative controls are the same as in Example 8.
In general terms: An ELISA detects its analyte on a solid surface through an enzyme-linked reagent.
As a reminder, the IC50 is the midpoint of a concentration-inhibition curve. In the case of B7, the IC50 was found to be 51.4 pM.
On the same count and under the same terms, for B8 the value was 196 pM; for B9, 57.1 pM.
